This data set can be described thus: amyloid nucleation score (Sup35N fusion, yeast selection) (log enrichment); library NNK3; higher = more nucleation; inactive = no reads after selection. The method in brief: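 Output and input plasmid inserts were sequenced by Illumina after psi-negative yeast carrying Sup35N fused to peptides of 20 random codons had been induced 24 hours with 100 μM copper sulfate and grown 7 days at 30°C on medium lacking adenine and uracil. The nucleation score is the DiMSum log enrichment of output over input reads, centred on the mode score of non-aggregating sequences. Sequences with under 100 input reads were excluded.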

± gives the uncertainty stated by the source.

As to CSLQNVTVGLLHSQVVSRWE, the amyloid nucleation score entry is “inactive”. Regarding MTQVQCLTSVNWKVTHVLHR, the amyloid nucleation score amounted to 1.29 ± 0.15. KLLLYFKYLMPVELISWSTL: the amyloid nucleation score entry was “inactive”. DLFKCGRGHVIFVLSRLLIS showed an amyloid nucleation score of -0.459 ± 1.1.

On to ARLPFCAISLTRYGWFSCRC, for which the amyloid nucleation score entry was “inactive”.

Turning to IIMGV, the amyloid nucleation score result was “inactive”.

For the substance KLMEICYRVRIRRMECQVNW, the amyloid nucleation score came out at 0.753 ± 0.12. As for AEYLMEQAGTMC, the amyloid nucleation score entry is “inactive”.

With AGWGLLQSCRRFWEWCG, the amyloid nucleation score entry is “inactive”. For SLFFSYV the value was “inactive”. On to IIMSLLIALP, for which the amyloid nucleation score was 0.653 ± 0.18. In the case of ARSIFEVTRHEAAGRMSVFS, the amyloid nucleation score is -0.01 ± 0.96.

As to WLKNF, the amyloid nucleation score result is “inactive”. For DNQFICLFVVEIGIVYDSYA, the amyloid nucleation score result was “inactive”.

THNVRDMLPATETFASKSGG displayed an amyloid nucleation score of 1.1 ± 0.17.

As for NWHDYSSGVGLKIRGECMNV, the amyloid nucleation score result was “inactive”.

Take TTEFKIDR: the amyloid nucleation score entry was “inactive”. Turning to YTRISTIFGYSAMVQFMPCQ, the amyloid nucleation score result was “inactive”. For PDLRLMVVCASYPGSATRAM the value was “inactive”; for LDLNVIDRGWTPGTGTVQRM, “inactive”; for NLNSFSGAFVLIWGATVHFC, 1.96 ± 0.075.

Turning to ALCSKGMGANSAKTK, the amyloid nucleation score entry is “inactive”. With KSLTDHVNRSFLMVGVWMVK, the amyloid nucleation score result was “inactive”.

YFVYEG: the amyloid nucleation score entry was “inactive”. As for IRNIRFVFLILIDWSSRNSV, the amyloid nucleation score entry is “inactive”. For KPLVV the value was “inactive”; for SSLIGRVDRIMYVSARERTI, “inactive”. In turn, LCVSLNCPQFSFYSLQNQPY came in with an amyloid nucleation score of 2.71 ± 0.053. For LLSIRTSSCFCKRGSTKFED the value was 0.176 ± 0.33; for ACAGMDCKGYMFLWSFGRAW, “inactive”. As for NVLVN, the amyloid nucleation score result is “inactive”. For MNRNLLFASTLTFNFVLFVW the value was “inactive”. Regarding IIVSRWLWWDIGVSRNW, the amyloid nucleation score entry was “inactive”. For YSMQGYRCMYLGDNVAVLAF the value was “inactive”; for DMGLYLFFIYLCGVRDLLST, “inactive”; for IYVGKRNSCRPSSEDSVGNR, 0.402 ± 0.38. For the substance YDCFFTEIAVVVNIE, the amyloid nucleation score entry is “inactive”. As for IPCMG, the amyloid nucleation score entry was “inactive”. As to SVLMA, the amyloid nucleation score result was “inactive”. SFSEPAHWPSCSRFVRDCVS: the amyloid nucleation score entry was “inactive”. For NGMASMIRGIYNSVPHIRGL the value was “inactive”. For MWWGLAPIFWLLITTTDCGY the value was “inactive”; for HECKYFGVCGRSQGNRSWVA, “inactive”. In the case of RCRKHALLFHRCILGYSVLP, the amyloid nucleation score entry was “inactive”. The substance VTCSYQMVLWAAFVVKCPAL returned an amyloid nucleation score of 0.817 ± 0.21. For AQPVNMDKSWG, the amyloid nucleation score entry was “inactive”. For LSKLTSSQAGKG, the amyloid nucleation score result is “inactive”. As to LVYKLDVNCYDRNLLDSVEK, the amyloid nucleation score result was “inactive”.

RVMCRFIVRSLYAPDSHSLT displayed an amyloid nucleation score of 1.54 ± 0.073. Take FSQWT: the amyloid nucleation score result was “inactive”.

For the substance LVVSVCKK, the amyloid nucleation score entry is “inactive”.

On to CYSVDRDV, for which the amyloid nucleation score entry was “inactive”. For YELMIFVTELALLDEILPEQ the value was “inactive”; for AYIIN, -0.363 ± 0.82; for TYLNTVRLKSGMMMNMKSTR, “inactive”. As to YETSVH, the amyloid nucleation score result is “inactive”. With WESLIGLWASAGMIWVHWGS, the amyloid nucleation score result was “inactive”.

As for NWSLSKSRHIPLGTCRGISY, the amyloid nucleation score was -0.201 ± 0.84. As for WTLFWNPLI, the amyloid nucleation score entry is “inactive”. On to QYRGCG, for which the amyloid nucleation score result is “inactive”. As for QKAVIGM, the amyloid nucleation score entry is “inactive”. Turning to RFFLYFNCAWVILMWCKRIV, the amyloid nucleation score result is “inactive”. For YKRLVSLNVEWALRK, the amyloid nucleation score entry is “inactive”. Take ILDAEVFGLISGFMSMHCNA: the amyloid nucleation score result is “inactive”. In turn, NISYKW yielded an amyloid nucleation score of 0.377 ± 0.34. Consider CLVNWPMWENPWSPHFGSNY, for which the amyloid nucleation score result is “inactive”.

In the case of VYNTGFLGPVSFSAGKFLML, the amyloid nucleation score stood at 0.943 ± 0.13. As to QGVCWLVV, the amyloid nucleation score entry is “inactive”.

CHSFIMIYVVMMDIS: the amyloid nucleation score was found to be 0.103 ± 0.55.

For IRSYAF, the amyloid nucleation score result is “inactive”. In the case of LFMTRSFILYFTYPFRYGVV, the amyloid nucleation score entry was “inactive”. As to YFRVAFCTHGFIMARCAFSS, the amyloid nucleation score entry is “inactive”. As for LAYWPSNGCVP, the amyloid nucleation score result is “inactive”. As for CKYLPLRNYGSCSPGYGKYV, the amyloid nucleation score result is “inactive”. In the case of YYPLLIPLY, the amyloid nucleation score result is “inactive”. For YMMGKISSPGNLMTMFAVDG the value was “inactive”. In the case of DFTLTPMWRHFEGFNKVAWG, the amyloid nucleation score entry is “inactive”.

In turn, YVVVCSCAWS registered an amyloid nucleation score of 2.63 ± 0.074. In turn, FFLSTTGSMPHFPFKVSSSF showed an amyloid nucleation score of 0.088 ± 0.24. In the case of YLTMLWLFHLRERAALMGLN, the amyloid nucleation score entry is “inactive”. With ETYYFSVGFFY, the amyloid nucleation score result was “inactive”. For the substance AYFDLWLM, the amyloid nucleation score entry is “inactive”. For KVWCKMLISSFIWMYVSE, the amyloid nucleation score entry was “inactive”. Take ALLTAYDRKNTNGYAGVRWN: the amyloid nucleation score entry is “inactive”. With NLESTNTMSYIWYRADSKCG, the amyloid nucleation score result is “inactive”. As to LVLQLGFKKSPLRVYRSSGN, the amyloid nucleation score entry was “inactive”. Consider DIVTTHVGKSLG, for which the amyloid nucleation score result is “inactive”. Consider VVFCEYSTCAVRSL, for which the amyloid nucleation score is -0.219 ± 0.89. For CHFIRGESSRTKLGLEHTN the value was “inactive”; for LPNSNTGKKCYGMNHSKENC, “inactive”; for RLVMHSRHTMLLHARGLRSR, “inactive”.

NNTEHS: the amyloid nucleation score result is “inactive”. For MGISLMFESERVSVYEHGNL the value was “inactive”; for RIFSFT, “inactive”; for YLNSDYSMKFTRWY, 1.1 ± 0.12. For RAQKVPCVIFSYTWIRSMSD the value was “inactive”; for LLKIFNNEVKITITFCLLYV, “inactive”; for ASRKTFYAL, “inactive”.

With CTDRRVRWGYGFKFRFGHGD, the amyloid nucleation score entry was “inactive”. For TFLNSNFFPIWLVVCASA the value was “inactive”; for DCFLLSTIVALYRDYRYIGT, “inactive”. Turning to VSGQVVFGLWGYLWLYEEVF, the amyloid nucleation score result is “inactive”. For NTRKHFVSWCAHPDEDSSFM the value was “inactive”; for DCTSILELVGGARPTHSGLE, “inactive”; for WFNQHTECHGRSVHLAAHNV, -0.14 ± 1.

As for TKRWFGLCYESVKLRVRSFA, the amyloid nucleation score entry was “inactive”. For CLHEDCRMTADSLPSLRKDR, the amyloid nucleation score result was “inactive”. As to VTVCSFLLVSRNRNRLRRIY, the amyloid nucleation score result is “inactive”. Regarding LNQLRSDITGLMSMTWDDLC, the amyloid nucleation score entry is “inactive”. On to ICDHVYVGNFLTQA, for which the amyloid nucleation score result was “inactive”. In the case of LLYMSECNELSIDRLVNLSK, the amyloid nucleation score entry was “inactive”.

The substance VAAMSVFSVGCLINIALRSN showed an amyloid nucleation score of 0.93 ± 0.2. For VMTAGWYLFLLSGSEGYVVS the value was -0.325 ± 1.2; for RWDNMFLSWRYCWVYAVSFS, “inactive”; for FVQNDNYKWVWL, “inactive”. For RVGSACNRNSLRKESCTPVQ the value was “inactive”; for KRYVCSTVTMLNCQVR, “inactive”; for VTGHLGKG, “inactive”. SFCIIY: the amyloid nucleation score result was “inactive”. For MEYSRVVAL the value was -0.421 ± 0.66; for HWCVPL, “inactive”. VVCLFRVRYRW: the amyloid nucleation score worked out at 1.48 ± 0.12. For WRQVL the value was “inactive”; for YVEHAYIRWRSVCKSIFLFS, “inactive”; for SLTALDNWCRIFAMPVLSWK, “inactive”. FAISSILSMDAPGLDQIDRF: the amyloid nucleation score result was “inactive”. Substance FLCMLVYI yielded an amyloid nucleation score of 1.23 ± 0.11. With KSWGLVHKCSSAFMFPKFCP, the amyloid nucleation score result is “inactive”. Take FKLDSMCRLKRAAN: the amyloid nucleation score entry was “inactive”. Consider RDCSSAIYKCTWCMSF, for which the amyloid nucleation score result was “inactive”. For WCVASILRQFPLCYFITQNP, the amyloid nucleation score entry is “inactive”. With SYFVALMSLRYMESTYWR, the amyloid nucleation score result was “inactive”. Consider HLRETCCRWDVLCVDSLLV, for which the amyloid nucleation score entry is “inactive”.

Values taken from the supplement of paper PMC12042874.
